This passage reports Kd results from US20200317768A1 (published 2020).

What all share (experiment): SPR (Biacore), antibody captured, FcgR analyte, 25 C
In general terms: Surface plasmon resonance follows binding to a sensor surface in real time, without labels.

For assay [1], the target named is T1, cynomolgus monkey FcγRIIIaS extracellular domain, C-terminal His-tag (cynomolgus monkey, UniProt A3RFZ7 21-206 (rhesus entry)).
T1 construct: also called cyno FcγRIIIaS; cynoFcγRIIIaS; not shown: His-tag added to C-terminus
T1 sequence (A3RFZ7 21-206): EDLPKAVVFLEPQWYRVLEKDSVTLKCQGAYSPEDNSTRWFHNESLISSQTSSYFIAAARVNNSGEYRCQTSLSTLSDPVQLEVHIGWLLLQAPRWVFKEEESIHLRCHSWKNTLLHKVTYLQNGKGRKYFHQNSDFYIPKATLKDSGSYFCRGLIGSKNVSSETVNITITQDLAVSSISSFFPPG

Assay [2] addresses T2, human FcγRIIb extracellular domain, C-terminal His-tag (human, UniProt P31994 43-217).
T2 construct: also called FcgRIIb (human); not shown: His-tag added to C-terminus
T2 sequence: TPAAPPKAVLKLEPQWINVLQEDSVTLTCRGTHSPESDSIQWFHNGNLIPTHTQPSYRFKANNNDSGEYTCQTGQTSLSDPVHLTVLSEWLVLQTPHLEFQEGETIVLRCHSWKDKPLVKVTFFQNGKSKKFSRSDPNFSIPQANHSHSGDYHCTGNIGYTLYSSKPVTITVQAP

Assay [3] has as its target T3, cynomolgus monkey FcγRIIa2 extracellular domain, C-terminal His-tag (cynomolgus monkey).
T3 construct: also called cyno FcγRIIa2; cynoFcgRIIa2; not shown: His-tag added to C-terminus
T3 chain: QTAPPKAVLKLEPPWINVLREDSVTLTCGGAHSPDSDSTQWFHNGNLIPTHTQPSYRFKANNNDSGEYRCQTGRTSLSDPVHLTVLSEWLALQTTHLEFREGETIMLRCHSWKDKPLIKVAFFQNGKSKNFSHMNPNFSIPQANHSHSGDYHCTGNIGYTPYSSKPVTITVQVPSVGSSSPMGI

For assay [4], the target named is T4, cynomolgus monkey FcγRIIa1 extracellular domain, C-terminal His-tag (cynomolgus monkey).
T4 construct: also called cyno FcγRIIa1; cynoFcgRIIa1; not shown: His-tag added to C-terminus
T4 chain: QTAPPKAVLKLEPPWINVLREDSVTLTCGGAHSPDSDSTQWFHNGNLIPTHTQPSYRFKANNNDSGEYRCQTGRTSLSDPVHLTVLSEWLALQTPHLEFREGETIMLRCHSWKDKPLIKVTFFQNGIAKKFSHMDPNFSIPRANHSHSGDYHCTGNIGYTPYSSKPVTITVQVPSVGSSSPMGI

Assay [5] deals with T5, human FcγRIIaR extracellular domain, C-terminal His-tag (human, UniProt P12318 34-217).
T5 construct: also called human FcγRIIa (type R); FcgRIIaR; not shown: His-tag added to C-terminus
T5 chain: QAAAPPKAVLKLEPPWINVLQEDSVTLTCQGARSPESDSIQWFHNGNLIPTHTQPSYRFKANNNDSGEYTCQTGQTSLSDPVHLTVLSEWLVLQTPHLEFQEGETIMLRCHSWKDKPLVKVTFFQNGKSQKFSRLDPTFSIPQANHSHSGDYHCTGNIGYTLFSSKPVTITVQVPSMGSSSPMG

For assay [6], the target named is T6, cynomolgus monkey FcγRIIa3 extracellular domain, C-terminal His-tag (cynomolgus monkey).
T6 construct: also called cyno FcγRIIa3; cynoFcgRIIa3; not shown: His-tag added to C-terminus
T6 chain: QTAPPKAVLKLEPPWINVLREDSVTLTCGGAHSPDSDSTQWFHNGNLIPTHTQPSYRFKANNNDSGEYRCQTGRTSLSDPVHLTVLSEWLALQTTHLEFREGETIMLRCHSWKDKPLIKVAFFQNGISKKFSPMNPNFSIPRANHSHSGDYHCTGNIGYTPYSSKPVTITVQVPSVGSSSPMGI

Assay [7] deals with T7, human FcγRIIIaV extracellular domain, C-terminal His-tag (human, UniProt P08637 17-208).
T7 construct: also called FcgRIIIaV; not shown: His-tag added to C-terminus
T7 sequence (P08637 17-208 F176V): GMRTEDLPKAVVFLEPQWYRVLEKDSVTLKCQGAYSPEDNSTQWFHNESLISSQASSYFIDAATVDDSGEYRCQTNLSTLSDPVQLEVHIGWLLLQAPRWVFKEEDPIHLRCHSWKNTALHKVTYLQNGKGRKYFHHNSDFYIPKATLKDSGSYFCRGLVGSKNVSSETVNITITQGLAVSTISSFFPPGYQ

Assay [8] has as its target T8, cynomolgus monkey FcγRIIb extracellular domain, C-terminal His-tag (cynomolgus monkey).
T8 construct: also called cyno FcγRIIb; cynoFcγRIIb; not shown: His-tag added to C-terminus
T8 chain: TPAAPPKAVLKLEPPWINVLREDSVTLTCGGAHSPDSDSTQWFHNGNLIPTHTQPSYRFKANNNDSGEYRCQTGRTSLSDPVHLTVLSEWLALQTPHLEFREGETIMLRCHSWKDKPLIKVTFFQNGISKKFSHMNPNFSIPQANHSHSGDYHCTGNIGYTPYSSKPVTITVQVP

B1: M103205H795-MY242/M103202L889-SK1 (antibody, human IgG1, kappa)
heavy: QVTLKESGPVLVKPTETLTLTCTVSGIDLSHDDISWVRQAPGKGLEWVGIISYAGSTYYASWAKGRLTISKDTSKNQVVLTMTNMDPVDTATYYCARGVPAYSHGGDLWGQGTLVTVSSASTKGPSVFPLAPSSKSTSGGTAALGCLVKDYFPEPVTVSWNSGALTSGVHTFPAVLQSSGLYSLSSVVTVPSSSLGTQTYICNVNHKPSNTKVDKKVEPKSCDKTHTCPPCPAPELLGGISVFLFPPKPKDTLMISRTPEVTCVVVDVSDEDPEVKFNWYVDGVEVHNAKTKPREEQYNSTYRVVSVLTVLHQDWLNGKEYKCKVSNKALPKPIEKTISKAKGQPREPQVYTLPPSREEMTKNQVSLTCLVKGFYPSDIAVEWESNGQPENNYKTTPKVLDSDGSFFLYSKLTVDKSRWQQGNVFSCSVMHEALHNHYTQKSLSLSP
light: DIVMTQSPATLSLSPGERATLSCTSSQSVYHANWLSWFQQKPGQPPKLLIYWASTLAYGVPSRFSGSGSGTDFTLTISSLQPEDAATYYCAGGYGGGRYAFGQGTKVEIKRTVAAPSVFIFPPSDEQLKSGTASVVCLLNNFYPREAKVQWKVDNALQSGNSQESVTEQDSKDSTYSLSSTLTLSKADYEKHKVYACEVTHQGLSSPVTKSFNRGEC
The term Kd denotes the equilibrium constant for the complex coming apart. As to B1, the Kd was found to be 990 nM in assay [1]; 1900 nM in assay [2]; 4200 nM in assay [3]; 4500 nM in assay [4]; 690 nM in assay [5]; 5.9 µM in assay [6]. The values for the Kd in assay [7] and in assay [8] were 9200 nM and 1100 nM, respectively.

B2: M103205H795-MY270/M103202L889-SK1 (antibody, human IgG1, kappa)
heavy: QVTLKESGPVLVKPTETLTLTCTVSGIDLSHDDISWVRQAPGKGLEWVGIISYAGSTYYASWAKGRLTISKDTSKNQVVLTMTNMDPVDTATYYCARGVPAYSHGGDLWGQGTLVTVSSASTKGPSVFPLAPSSKSTSGGTAALGCLVKDYFPEPVTVSWNSGALTSGVHTFPAVLQSSGLYSLSSVVTVPSSSLGTQTYICNVNHKPSNTKVDKKVEPKSCDKTHTCPPCPAPELLHGPSVFLFPPKPKDTLMISRTPEVTCVVVDVSDEDPEVKFNWYVDGVEVHNAKTKPREEQYNSTYRVVSVLTVLHQDWLNGKEYKCKVSNKALPKPIEKTISKAKGQPREPQVYTLPPSREEMTKNQVSLTCLVKGFYPSDIAVEWESNGQPENNYKTTPKVLDSDGSFFLYSKLTVDKSRWQQGNVFSCSVMHEALHNHYTQKSLSLSP
light: DIVMTQSPATLSLSPGERATLSCTSSQSVYHANWLSWFQQKPGQPPKLLIYWASTLAYGVPSRFSGSGSGTDFTLTISSLQPEDAATYYCAGGYGGGRYAFGQGTKVEIKRTVAAPSVFIFPPSDEQLKSGTASVVCLLNNFYPREAKVQWKVDNALQSGNSQESVTEQDSKDSTYSLSSTLTLSKADYEKHKVYACEVTHQGLSSPVTKSFNRGEC
As for B2, the equilibrium dissociation constant (Kd) in assay [1] is 1100 nM; in assay [2], 2500 nM; in assay [3], 2300 nM; in assay [4], 1800 nM; in assay [5] it was 370 nM; in assay [6] it was 2.5 µM. The results for the Kd in assay [7] and in assay [8] were 3700 nM and 530 nM, respectively.

B3: M103205H795-MY269/M103202L889-SK1 (antibody, human IgG1, kappa)
heavy: QVTLKESGPVLVKPTETLTLTCTVSGIDLSHDDISWVRQAPGKGLEWVGIISYAGSTYYASWAKGRLTISKDTSKNQVVLTMTNMDPVDTATYYCARGVPAYSHGGDLWGQGTLVTVSSASTKGPSVFPLAPSSKSTSGGTAALGCLVKDYFPEPVTVSWNSGALTSGVHTFPAVLQSSGLYSLSSVVTVPSSSLGTQTYICNVNHKPSNTKVDKKVEPKSCDKTHTCPPCPAPELLMGPSVFLFPPKPKDTLMISRTPEVTCVVVDVSDEDPEVKFNWYVDGVEVHNAKTKPREEQYNSTYRVVSVLTVLHQDWLNGKEYKCKVSNKALPKPIEKTISKAKGQPREPQVYTLPPSREEMTKNQVSLTCLVKGFYPSDIAVEWESNGQPENNYKTTPKVLDSDGSFFLYSKLTVDKSRWQQGNVFSCSVMHEALHNHYTQKSLSLSP
light: DIVMTQSPATLSLSPGERATLSCTSSQSVYHANWLSWFQQKPGQPPKLLIYWASTLAYGVPSRFSGSGSGTDFTLTISSLQPEDAATYYCAGGYGGGRYAFGQGTKVEIKRTVAAPSVFIFPPSDEQLKSGTASVVCLLNNFYPREAKVQWKVDNALQSGNSQESVTEQDSKDSTYSLSSTLTLSKADYEKHKVYACEVTHQGLSSPVTKSFNRGEC
As for B3, the Kd in assay [1] is 220 nM; in assay [2] it was 2100 nM; in assay [3], 2600 nM; in assay [4], 2300 nM; in assay [5], 720 nM; in assay [6] it was 6.4 µM. Moreover, the dissociation constant (Kd) in assay [7] turned out to be 1100 nM; in assay [8], 350 nM.

B4: M103205H795-MY272/M103202L889-SK1 (antibody, human IgG1, kappa)
heavy: QVTLKESGPVLVKPTETLTLTCTVSGIDLSHDDISWVRQAPGKGLEWVGIISYAGSTYYASWAKGRLTISKDTSKNQVVLTMTNMDPVDTATYYCARGVPAYSHGGDLWGQGTLVTVSSASTKGPSVFPLAPSSKSTSGGTAALGCLVKDYFPEPVTVSWNSGALTSGVHTFPAVLQSSGLYSLSSVVTVPSSSLGTQTYICNVNHKPSNTKVDKKVEPKSCDKTHTCPPCPAPELLQGPSVFLFPPKPKDTLMISRTPEVTCVVVDVSDEDPEVKFNWYVDGVEVHNAKTKPREEQYNSTYRVVSVLTVLHQDWLNGKEYKCKVSNKALPKPIEKTISKAKGQPREPQVYTLPPSREEMTKNQVSLTCLVKGFYPSDIAVEWESNGQPENNYKTTPKVLDSDGSFFLYSKLTVDKSRWQQGNVFSCSVMHEALHNHYTQKSLSLSP
light: DIVMTQSPATLSLSPGERATLSCTSSQSVYHANWLSWFQQKPGQPPKLLIYWASTLAYGVPSRFSGSGSGTDFTLTISSLQPEDAATYYCAGGYGGGRYAFGQGTKVEIKRTVAAPSVFIFPPSDEQLKSGTASVVCLLNNFYPREAKVQWKVDNALQSGNSQESVTEQDSKDSTYSLSSTLTLSKADYEKHKVYACEVTHQGLSSPVTKSFNRGEC
As to B4, the dissociation constant (Kd) in assay [1] came to 290 nM; in assay [2] it was 1200 nM; in assay [3], 1900 nM; in assay [4] it was 1900 nM; in assay [5], 250 nM; in assay [6] it was 6.2 µM. The Kd is 870 nM in assay [7] and 430 nM in assay [8].

B5: M103205H795-MY271/M103202L889-SK1 (antibody, human IgG1, kappa)
heavy: QVTLKESGPVLVKPTETLTLTCTVSGIDLSHDDISWVRQAPGKGLEWVGIISYAGSTYYASWAKGRLTISKDTSKNQVVLTMTNMDPVDTATYYCARGVPAYSHGGDLWGQGTLVTVSSASTKGPSVFPLAPSSKSTSGGTAALGCLVKDYFPEPVTVSWNSGALTSGVHTFPAVLQSSGLYSLSSVVTVPSSSLGTQTYICNVNHKPSNTKVDKKVEPKSCDKTHTCPPCPAPELLVGPSVFLFPPKPKDTLMISRTPEVTCVVVDVSDEDPEVKFNWYVDGVEVHNAKTKPREEQYNSTYRVVSVLTVLHQDWLNGKEYKCKVSNKALPKPIEKTISKAKGQPREPQVYTLPPSREEMTKNQVSLTCLVKGFYPSDIAVEWESNGQPENNYKTTPKVLDSDGSFFLYSKLTVDKSRWQQGNVFSCSVMHEALHNHYTQKSLSLSP
light: DIVMTQSPATLSLSPGERATLSCTSSQSVYHANWLSWFQQKPGQPPKLLIYWASTLAYGVPSRFSGSGSGTDFTLTISSLQPEDAATYYCAGGYGGGRYAFGQGTKVEIKRTVAAPSVFIFPPSDEQLKSGTASVVCLLNNFYPREAKVQWKVDNALQSGNSQESVTEQDSKDSTYSLSSTLTLSKADYEKHKVYACEVTHQGLSSPVTKSFNRGEC
For B5, the Kd was 870 nM in assay [1]; 2100 nM in assay [2]; 700 nM in assay [3]; 760 nM in assay [4]; 2300 nM in assay [5]; 3.1 µM in assay [6]. The Kd in assay [7] was 2300 nM; in assay [8], 190 nM.
